Assay: soluble on expression in E. coli; label from the status in PepcDB or PDB records

With “MIIVKNHKFKLDLLQNEANKEKFEGNTACSTAAYTLVREDASTGLTYTADISKVGNQISGEPAQRIKIREHRRIPKFDLPNLKVSKVYKLPLEASYAKGLLLLLIFCFGLSGCNTSKRLPYSHKYSYKELSKDDPHNLTYKGHYKVGKNYKIKGKTYKPHNPKSFTETGYASWYGGLKDGFHGKKTANGDRFNRNLLTAAHKTLPLPCLVKVTNKANNKAVILMVNDRGPFKKNRIIDVSQRAAEILAFKNQGITKVKIEYLPNETEKFLKNINLKKPQSKTLAKNSKKSSSNKVTNNNKCSVNCHIKLINLKYKLAVTP” as the sequence, how does the “soluble on expression in E. coli” value read?
Its value is “soluble”.

For “MGSDKIHHHHHHMMYIGLPQWQHPAWSRLGLNDLADYSRYFSCVEGNTTFYALPSREIVGRWRDMTHDNFRFCFKFPSTISHKAALQNCDSDVSLFYQCLEPIEHRIGQLWLQLPATFGPVLLPVLWRFLDALPQGFSYGVEVRHPLFFTKGDEERALNQGLQQRGINRVILKRHI”, which “soluble on expression in E. coli” value is on record?
The value was “not soluble”.

For “MTLNDKYPFTDEDQAIINSYKAVVDGVSALIGEHCEIVLHSLENIEHSAICIANGHNTNRQVGSPITDLALRSLRNMQSESVSKPYFTRAKGSVLMKSVTIAIRNKTQRIIGLLCININLDVPVSQFLQCFMLTEHTNETSSVNFANSVEDLVAQTIEKTIEEVNADRAVANNTKNRQIVLSLYEKGIFDIKDAINLVAERLDISRHTVYLYIRQIKQEQE”, which “soluble on expression in E. coli” value is on record?
The value was “not soluble”.

Which “soluble on expression in E. coli” value does the source give for “AEIKNVILMIGDGMGPQQVGLLETYANQAPNSIYKGNKTAIYQLAQEGVIGSSLTHPEDAIVVDSACSATMLATGIYSSSEVIGIDSQGNHVETVLEKAKKAGKATGLVSDTRLTHATPASFAAHQPHRSLENQIASDMLATGADVMLSGGLRHWIPKSTNDKGETYKQLEKLTQGDVYLKSKRKDDRNLLTEAEKDGYQLAFNRNMLDDAKGDKLLGLFAYSGMDDGIAYSNKKKSGERTQPSLKEMTQKALNILSKDEDGFFLMVEGGQIDWAGHSNDAGTMLHELLKFDEAIQTVYEWAKDREDTIVIVTADHETGSFGFSYSSNDLPKPQKRSGEAFADRDYAPNFNFGAFDILDGLYNQKQSYYGMISEFQKLDKSLQTPEKLAEIVNKNSEFPITAEQAKNVLASKPNPYRLAQHKYLSAEEVPAINDFDAFFPYNDRGNLLAREQATGQNIVWGTGTHTHTPVNVFAWGPAEKILPVSKIMHHSELGEYIKQQVN” here?
The value was “soluble”.

With “MEIKKGLEDVYVKETEITYIDGELGRLYYRGYSIYDLAEFSNFEEVSYLILYGKLPNREELNWFQEKLREERYLPDFIIKFLREVRKDAQPMDILRTAVSLLGIEDSKNDERTDIKGIKLISKFPTIVANYARLRKGLDIIEPDPKLSHSENFLYMLYGDRPNEIKSKAMDVTLILHIDHEMNASTFASLVVASTFSDLYSSIVAGISALKGPLHGGANYEALKMFKEIGSPEKVNDYILNRLSNKQRIMGFGHRVYKTYDPRARILKQYAKLLAEKEGGEIYTLYQIAEKVEEIGIKYLGPKGIYPNVDFFSSIVFYSLGFEPDFFPAVFASARVVGWVAHIMEYIKDNKIIRPKAYYKGEIGKKYIPIDSR” as the sequence, how does the “soluble on expression in E. coli” value read?
The value was “soluble”.

Which “soluble on expression in E. coli” value does the source give for “MAGDPMNVEGMATGGIHMELHCPQCQHVLDQDNGHARCRSCGEFIEMKALCPDCHQPLQVLKACGAVDYFCQHGHGLISKKRVEFVLALEHHHHHH” here?
The value was “not soluble”.

With “MPITKIHARQIYDSRGNPTVEVDLFTEKGVFRAAVPSGASTGVHEALELRDGDKAVHLGKGVLKAVSNINEKIAPALIAKGFDVTAQKDIDDFMMALDGSENKGNLGANAILGVSLAVAKAGAVHKGLPLYKYIAELAGTGKVVLPVPAFNVINGGSHAGNKLAMQEFMILPVGASSFAEAMRMGSEVYHHLKAEIKKRYGLDATAVGDEGGFAPNIQDNKEGLDLLNTAIDKAGYTGKISIGMDVAASEFFKDGKYDLDFKNPASDSSKWLSGEQLTELYQSFIKEYPVVSIEDAFDQDDWDNWGKFHGATSIQLVGDDLTVTNPKRIQTAIDKKSCNCLLLKVNQIGSVTESIEAAKLSRANGWGVMVSHRSGETEDTFIADLVVGLATGQIKTGAPCRSERLAKYNQLLRIEEELGADAVYAGHNFRNPQV” as the sequence, how does the “soluble on expression in E. coli” value read?
The value was “not soluble”.

With “MGSDKIHHHHHHMKILIYGAGVLGSYAAYELKRVGHEVTILARSSRYEELKEKGLVIRHWFQRKTTKNKINVVKELLPEEYYDAVFIVMQSSQTNAILPVITANVKCPLFVFVGNQDKAKDISEKIKSTSKSNPRVLFGFFSIGGRREGGKVISVHTKHPDFDIGDLEGRDDYKIIIEKIFKETSFKLHYHVNMDDFFKTHIVVIMPLAYLAYMSNCDLRKIAWNRKALNAVIDAMIEGHEVLIKLGHKVDPESSERLLRNHRKVAYLGLKVCAMTPLGKLGISDHCKSGWREMEYLDKRLLEWAKKSNLETPNINKLREHLIKYVHKKVI” as the sequence, how does the “soluble on expression in E. coli” value read?
The value was “not soluble”.

Which “soluble on expression in E. coli” value does the source give for “MSLIYPEITGKSGEHLRLKTLESVWIQGKLRMWGRWSYIGDGKTGNMFNQLLTSKKLTKTAINEALRRMKKAGLDKPELEAFLRDMINGNQKSWLAHCTDSEALIIDRVIGEVLAGYPGLLNVLSQRYVGRGMTKRKMAELLNDAHPEWSLRTCERRIEHWLKVAEFILYKPMVMAFGIEKKVIAFEGHHHHHH” here?
The value was “soluble”.

With “GPGSMAELHVIGDLAFGEDFGGKSYFCAFEIVTGEHWRVVEGHTSGCTHIMESDSCGGIAWCFPIDVHYTMGSVEGWPKISMQVWSVDGYGRKDLAGYGVAFVPPPGGEEQEVNVETWKPCFWNPNFFIRLYENLREAVMGGGPVLCDKTMIHTNDERFKLRTISSGSVRLHLNVVARGMERLGVRCA” as the sequence, how does the “soluble on expression in E. coli” value read?
Its value is “not soluble”.

Which “soluble on expression in E. coli” value does the source give for “MNNPAMTIKGEQAKKQLIAAALAQFGEYGMNATTREIAAQAGQNIAAITYYFGSKEDLYLACAQWIADFIGEQFRPHAEEAERLFAQPQPDRAAIRELILRACRNMIKLLTQDDTVNLSKFISREQLSPTAAYHLVHEQVISPLHSHLTRLIAAWTGCDANDTRMILHTHALIGEILAFRLGKETILLRTGWTAFDEEKTELINQTVTCHIDLILQGLSQRSL” here?
Its value is “soluble”.

Which “soluble on expression in E. coli” value does the source give for “MSLYGGIPTNLVSGMSSAGAICTTQIRDAREREKREIGLLNDRLADYIEKVRFLKAQNHVLSHDIEILRRGFSGGGHISSFFESEISNCTVISERILSSRTKFQADITGLEGEIEIYRKKWLEALKVVRSHREDHHVNLDKLAEVEAQIALFNRKIRIVEEDVLRIRRETGGIQNDIGRIHSQIHAEIALKNERHHSVQMLLQRVQVIQTENSSRIEQELIYIHRDTTLENRDYFRQELQAAMRDIRANYEAMSIRSREDIEIAYRKRIDEIRVIPAHVHIEDYREELLSIRTTLSTTHSRLAEIESRNAWLLTTITDLKHQQAEEARIFEATLDAKQATYEQFKERCTELSIQMEKLCDHETSLQAELERYRVLLNGANVTTYVSNSTGAAGYRSSTHVATTTTTTTNGYSSGYTAGGYTSGGYTTGGYTRGITAGGAVGGISTGGYIGRSSSSHGISVGGNIGGVSVGGHINGYHASGDISAAGRHHESSYSYSSSNN” here?
The value was “not soluble”.

Which “soluble on expression in E. coli” value does the source give for “MESSTDGQVVPQEVLNLPLEKYHEEADDYLDHLLDSLEELSEAHPDCIPDVELSHGVMTLEIPAFGTYVINKQPPNKQIWLASPLSGPNRFDLLNGEWVSLRNGTKLTDILTEEVEKAISKSQ” here?
Its value is “soluble”.
